Reference: patent US6887705B1, “Tyrosine phosphorylated cleavage furrow-associated proteins (PSTPIPs)” (Genentech, Inc., priority 1997, dated 2005)

Assays:
Test in all cases: in vitro translated PTP HSCF mutant precipitated with 1 or 10 µg/ml GST PST PIP
[1] = target: T1, PTP HSCF with P447 mutated to alanine, HA tagged (UniProt Q61152 1-453)
T1 construct: range 1-453; also called HSCF P447
T1 sequence (looked up): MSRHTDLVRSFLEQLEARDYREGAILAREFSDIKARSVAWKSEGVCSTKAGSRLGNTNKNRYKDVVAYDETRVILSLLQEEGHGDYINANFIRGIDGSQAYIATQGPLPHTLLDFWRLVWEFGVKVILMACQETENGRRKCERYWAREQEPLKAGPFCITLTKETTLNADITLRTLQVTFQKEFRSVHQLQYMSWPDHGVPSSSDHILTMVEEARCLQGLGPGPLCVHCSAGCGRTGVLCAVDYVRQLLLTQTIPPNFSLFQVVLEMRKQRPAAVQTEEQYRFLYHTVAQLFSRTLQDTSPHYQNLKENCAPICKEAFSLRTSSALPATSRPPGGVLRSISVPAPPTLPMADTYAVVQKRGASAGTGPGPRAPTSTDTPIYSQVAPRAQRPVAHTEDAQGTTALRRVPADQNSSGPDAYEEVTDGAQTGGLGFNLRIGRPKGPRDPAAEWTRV
Experimental: (§1) Multiple bands precipitated with the GST PST PIP fusion protein are apparently C-terminal proteolyzed products of the PTP. Also shown are GST PST PIP precipitations (10 μg/ml) performed on a double mutant of PTP HSCF (R+W) with both residues $R444$ and $W450$ mutated to alanine (bottom panel FIG. 14 A/2). B. COS cells were co-transfected with a 10:1 ratio of plasmids encoding hemagglutinin (HA) tagged PTP HSCF with the illustrated alanine substitutions or a mutant of PTP HSCF deleted for the C-terminal 24 amino acids (PTP $HSCFD24$) and wild type PST PIP with a C-terminal FLAG epitope tag, respectively. Transfected cell lysates were immunoprecipitated with anti-HA monoclonal antibodies and the precipitates were blotted with anti-PST PIP polyclonal antibody to detect the relative amounts of PST PIP complexed with either wild type or different mutant forms of PTP HSCF. Lysates were also immunoprecipitated with anti-HA antibody and blotted with the same antibody to insure equal expression of PTP HSCF. Equal expression of PSTPIP was determined by immunoprecipitating lysates with anti-FLAG monoclonal antibody and blotting with anti-PST PIP polyclonal antibody.
(§2) In vitro binding analyses between various PTP HSCF and PST PIP constructs were performed as previously described (Spencer et al, (1997), supra). Briefly, plasmids were transcribed and translated in vitro using the TnT Rabbit Reticulocyte Lysate System (Promega). Samples were diluted in 50 mM HEPES, pH 7.2, 1% triton X-100, 10% glycerol, 100 mM NaCl, and 2 µg/ml each of leupeptin, pepstatin, aprotinin and PMSF (lysis buffer). Samples were than reacted with GST fusion proteins at various concentrations, and the bound proteins were centrifuged using glutathione-sepharose beads and analyzed on SDS polyacrylamide gels. C-terminally-derived peptide inhibition studies were performed by incubating the GST fusion protein binding reactions in the presence of 10 µg/ml of the indicated peptides. Peptides were produced by FMOC-protected amino acids as previously described (Spencer et al, (1997), supra). In vivo interactions between various forms of PTP HSCF and PST PIP were also performed as previously described (Spencer et al, (1997), supra).

[2] = target: T2, PTP HSCF with P443 mutated to alanine, HA tagged (UniProt Q61152 1-453)
T2 construct: range 1-453; also called HSCF P443
T2 sequence (looked up): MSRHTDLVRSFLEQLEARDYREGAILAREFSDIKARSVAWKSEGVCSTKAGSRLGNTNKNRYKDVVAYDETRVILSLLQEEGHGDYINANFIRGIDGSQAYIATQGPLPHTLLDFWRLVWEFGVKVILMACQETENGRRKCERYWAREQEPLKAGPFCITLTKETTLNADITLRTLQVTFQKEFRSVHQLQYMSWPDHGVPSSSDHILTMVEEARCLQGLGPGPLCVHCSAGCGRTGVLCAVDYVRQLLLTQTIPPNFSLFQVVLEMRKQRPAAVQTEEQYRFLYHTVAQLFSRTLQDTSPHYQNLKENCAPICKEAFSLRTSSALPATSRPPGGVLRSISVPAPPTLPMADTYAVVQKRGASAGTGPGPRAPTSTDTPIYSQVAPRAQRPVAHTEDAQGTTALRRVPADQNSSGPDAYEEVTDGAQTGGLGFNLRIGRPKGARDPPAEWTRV
Experimental: as §1, §2

[3] = target: T3, PTP HSCF with R444 mutated to alanine, HA tagged (UniProt Q61152 1-453)
T3 construct: range 1-453; also called HSCF R444
T3 sequence (looked up): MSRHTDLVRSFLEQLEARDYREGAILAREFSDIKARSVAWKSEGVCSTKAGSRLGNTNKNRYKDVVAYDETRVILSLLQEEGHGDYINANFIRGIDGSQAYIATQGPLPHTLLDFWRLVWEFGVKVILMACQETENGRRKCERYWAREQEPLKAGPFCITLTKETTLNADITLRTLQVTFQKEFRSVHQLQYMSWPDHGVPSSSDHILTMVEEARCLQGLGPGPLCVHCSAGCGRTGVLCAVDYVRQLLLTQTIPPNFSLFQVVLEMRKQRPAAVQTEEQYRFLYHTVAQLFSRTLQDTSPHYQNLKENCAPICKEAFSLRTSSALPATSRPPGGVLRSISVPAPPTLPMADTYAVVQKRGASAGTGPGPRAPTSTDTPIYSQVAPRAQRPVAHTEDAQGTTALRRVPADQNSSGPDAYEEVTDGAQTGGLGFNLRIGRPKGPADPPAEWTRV
Experimental: as §1, §2

Measured: binding result

B1: GST-PSTPIP (GST fusion of full-length PSTPIP, amino acids 2-415) (other)
chain: MAQLQFRDAFWCRDFTAHTGYEVLLQRLLDGRKMCKDVEELLRQRAQAEERYGKELVQIARKAGGQTEMNSLRTSFDSLKQQTENVGSAHIQLALALREELRSLEEFRERQKEQRKKYEAIMDRVQKSKLSLYKKTMESKKAYDQKCRDADDAEQAFERVSANGHQKQVEKSQNKAKQCKESATEAERVYRQNIEQLERARTEWEQEHRTTCEAFQLQEFDRLTILRNALWVHCNQLSMQCVKDDELYEEVRLTLEGCDVEGDINGFIQSKSTGREPPAPVPYQNYYDREVTPLIGSPSIQPSCGVIKRFSGLLHGSPKTTPSAPAASTETLTPTPERNELVYASIEVQATQGNLNSSAQDYRALYDYTAQNSDELDISAGDILAVILEGEDGWWTVERNGQRGFVPGSYLEKL
notes: Made in DH5-alpha bacteria from pGEX4T-2; also called GST-full-length PSTPIP; GST PTP PIP; not shown: glutathione S-transferase encoded by pGEX-4T-2 (Pharmacia)
binds: [1] | [2] | [3]
